# In article PMC6269214 (Biochimica et biophysica acta. Proteins and proteomics, 2018):
# B1: cavsol (full-length, soluble human caveolin-1 variant gen-2d) (other)
# chain: MSGGKYVDSEGHLYTVPIREQGNIYKPNNKAMADELSEKQVYDAHTKEIDLVNRDPKHLNDDVVKIDFEDVIAEPEGTHSFDGIWKASFTTFTVTKYWFYRLLSAHEGIPMALSRGVEVAQVSDHHIRADDPCIKSFLIEIQCISRVYSIYVHTVCDPLFEAVGKIFSNVRINLQKEI
# Key:
# SEC-MALS = molecular target: the molecule itself; assay: SEC-MALS
# SEC = molecular target: the molecule itself; assay: SEC
protein,measurement,setting,value
B1,stoichiometry N,SEC-MALS,~90 cav monomers
same,stoichiometry N,SEC,24 monomers
